Assay results as given in US20030091983A1.

Target: synthetic HA 11 A-beta (1-40) peptide (human)
Experiment: sandwich ELISA, anti-HA 11 capture, detection with position 1 or position 40 antibodies

mAB anti-HA 11 (BABCO) (antibody)
peptide concentration at which the ELISA signal approached saturation: 10 ng/mL
